Data published in a protein production outcome set (Wang et al. 2014).

Test: label from the status in PepcDB records
For “MASKITQPDKYSGFLNNYSDLKETTSATGKPVLRWVDPSFDQSKYDSIVWNPITYYPVPKPSTQVGQKVLDKILNYTNTEMKEAIAQRKPLVTTAGPRSLIFRGAITGVDTSKEGLQFYEVVPVALVVAGTQMATGHRTMDTRLYFEGELIDAATNKPVIKVVRQGEGKDLNNESTPMAFENIKQVIDDMATDATMFDVN”, the protein production was “failed”. With “MASKSSFMATFNIVTLMLMVASSTVTARPLMKPSMGTSSPTTSLVYRLKLDEDTGYCWDSLMQLQHCSGELILFFLNGETYIGPGCCSAIRTIGRKCWPTMIGVLGFTAQEGDMLQGYCDGNDSDNNGEDHALASSTLPLSVNFKTTVVRSSASPSNP” the protein production was “failed”. With “MASLDEKWEAVDNFKSVVVDRERDVVRVTKELYDLHSNREQLRGVTSSCNYRLTIPFAPHHFGSGKTTFARTYLELVQRFGETSLSTFASDPLKRTFLEKLKRASLLYADLKELKPTDPKERNLEWAVYYLLIKAACLQSGLPQPDPDECFKELKLRSDALVQKIRSILNIPSDQYLLVAFDEVGVLDESLDEFHFKRTHDGRVRPYNDFFGIISQLCKEPDLFFIVVGKSKGLSIKNYVSSVSKVILHFISLSPLDASSIVEFLEKSLLKTPTQVPVCNVLCSSSFSVNELADSLLECTGGVPGLLTRAVNMLLNYIIARKFVLNHLWNEY” the protein production was “failed”. For “MASNGHTLRLVINRDKHDSVIRGLYLVTDHDDNLIPRVEAAIDGGARVVQYRNKNQDRESRLALGLELRELCRRRSIPFIVNDDLEMAVSLKADGLHLGQGDGDPREARRVLGPGKIIGVSTHTLSEALEAQAAGVDYIGLGAMFPSRSKEVEHVAGSELLAAIRSSISIPIVAIGGITRDNGASVIDAGADAVAVISAVLSHPDPALAATEIALLFNRRAPFPRGSVLTVAGSDSGGGAGIQADLKTVTLLGSYGSSVLTALTAQNTRGVSGIHGVPPAFVADQLDAVFSDIPVDVVKTGMLFSAETIVAIAAKLTEYRRRMVVVDPVMVAKGGANLIDRGAVSVLKERLFPLAYLVTPNIPEAERLTGANISDEESMREAARRLHRLGARNVLLKGGHLLAGDSVDILFDGAAFHRFVSPRILSKNTHGTGCTFASAIATYLAQGDPLREAIARAKRYITAAIRLAQPLGRGHGPVNHILAAEDVRDR”, the protein production was “failed”. With “MASNSRSSISPWTFSQNKMFERALAVYDKDTPDRWHNVAKAVGGKTVEEVKRHYDILVEDLINIETGRVPLPNYKTFESNSRSINDFDTRYITKYLYMMLSIYFDNHSSDFEKFSQKVLVSYISLV” the protein production was “failed”. In the case of “MASPATFQFSRTKLNLQINLVERKSPSKLSFPLLFRDQAKSTPIRFPVIRASSSSSASNHKPSLLKTTFISLTAAAALFSASFYFVNKRAAMTPVAVVETTLEKHLETQSNDVNALSLLTEIKFKSDKHEQAIVFLDRLIEIEPYERKWPAMKARILSYHGKSESAIEAFEEILEKDPIRVDAYHYLVMEYYNSKPKLTEIEKRINKVIRRCKKEKKTKEILGFRMLIAQIRFIEGKSVEAIRICEELVKEDPNDFTIYLFQGVVYTLMNKGEEAAKQFEHVARVIPRNHPSRETAARTTNSNEWRVIVAYDNVYCYLSTFARLSMASLFNKFG”, the protein production is reported as “failed”. For “MASQVTAGSSGPVCFLTVGLRLPSARGQPVVSNFNQPRPPQRQRWVDSLLGVSLVALVVAAALPLLLPLVRLPGGSSARDRELAAAQATAFQTVLQRDPDNLSALRSLIGVYLQQQQLQAAIAPLQRLARLQPQQPAYRVLLAQTQAQLGDREAAAQTYRQILETAPTNLEALRGFTQLLLTQKQPTAAVDLLQKARQTDKITPADQVSIDLMLAQVYANQGQIDDAIALYDRSAQNNGRDFRPLLAKALLLKQQGDLQKATPIFQEAIAIAPAQYRDQIRQLSPASMPATPPTQPATKTPPTAPPPPPN”, the protein production was “failed”. In the case of “MASRSASQASDALSQHGCPFSVRAKAFHGGRCMHELIGDITLSILFAWLLGLAAHFFRQPLILAYLIGGFVIGPFGLGWVKSENSISVISELGLIFMLFMIGLEIDLKKIIRAGPVILVAAGGQIAGGVLLGLAFFVGIGLSLGGGHFDALYLTVACALSSTVIIVKVLYEKRELDTLPGRITLGILVLQDIFAILFLAVQPSLADLQISVLLLSIARVVALVATALALSRYVLPWLFHRIARTPELVLLGALAWCFLIGEIAERLHLSREMGALVAGVSLSTFPYALDVTAKVTTLRDFFITLFFVALGMTIPIPNGSVIGLALAIAVFTLASRLLTTFLPLYLMKQGLRASLLPALNLAQISEFSLVVIQTGVAAGHIGTQTASAASFAFVLLAVLSTFVIMRSDPITRRAIGTLTKFGFRDLGQQQSGAEAAAEAGHGAVHRIVILGFFRAASALVSEIEQHTPELLKQISVIDFNPMVYRTLTERGMHVIYGDISNVDTLLHAGVAKAEIIILSVPDSLLKGATNERLVRHVRALNPNAQIVATADLLADVEAMYQAGADYVTVTRLADARELFEVIEAADNGLLSDKRAALDARLAERREVLP”, the protein production is reported as “failed”. In the case of “MASSSSSSEHKVFLSFRREDTGRTFVSHLYRSLDQKEIRTYKFENQQAGDGKRISSEVKQAINESRIAVVVISENYVSSVLCLDVLAKIIERLPLIKIETVFYEVDPGDLTRPTGKFADDFRRHEARENRRTVNRWRDALDQLVSITNSNFCSRNWEDDSKMIDDLIIRLINIYFSKYYTPDVDIIAETTVGLDASVLGLMTDIDMKYKLNSLSGSVESGFGLERYALEATSVMDDMSNESPSPTSDDSNGLVGMYRHKKAVYGLLDLESKNQVRTIGIWGFQGVGKTTLAECVFDDISSHFQHYCFLTNANKIYQNRISPSLLKHLTRRRSSEDIFDAIKPSLVNRKVLFVVDGVDATYNEQFNDAMKVTRWLGPGSRIIMTSRFKSSLKFGGAKYEMECLRYEEALQLFSLYAFKKTYPLIGFELFSIRAVHFAGRLPLSLKVLGSFLYDKDEESWKRTLHKLEASQDNDRRYVSNYIGAGEYLPRRQIELEQYVSPDEEEYSPSYIMSL”, the protein production is reported as “failed”. With “MASTTRPAPTVGFDLDMTLIDSRPGIRACYVELSARTGTYVDADLAVTRLGPPLAEELANWFPAEEIEAVADLYREIYPAYAIEPTLALPGAREAVTAVRGAGGRAVVVTAKYEPNAKLHLAHLGIEPDAVIGGLWAEQKAVALREHDADVYVGDHVGDVRGARAAGARSVAVASGPCDAGELRAAGADVVLADLTAFPEWLAAYRDGEGDAEGLDAARA” the protein production was “failed”. In the case of “MASTVDSNFFSSVPALHSNLGLLSPDQIELAKILLENGQSHLFQQWPELGVDDKEKLAFFDQIARLNSSYPGGLAAYIKTAKELLADSKVGKNPYDGFSPSVPSGENLTFGTDNFIEMEKRGVVEARNAAFVLVAGGLGERLGYNGIKVALPRETTTGTCFLQHYIESILALQEASNKIDSDGSERDIPFIIMTSDDTHSRTLDLLELNSYFGMKPTQVHLLKQEKVACLDDNDARLALDPHNKYSIQTKPHGHGDVHSLLYSSGLLHKWLEAGLKWVLFFQDTNGLLFNAIPASLGVSATKQYHVNSLAVPRKAKEAIGGISKLTHVDGRSMVINVEYNQLDPLLRASGFPDGDVNCETGFSPFPGNINQLILELGPYKDELQKTGGAIKEFVNPKYKDSTKTAFKSSTRLECMMQDYPKTLPPTARVGFTVMDIWLAYAPVKNNPEDAAKVPKGNPYHSATSGEMAIYRANSLILQKAGVKVEEPVKQVLNGQEVEVWSRITWKPKWGMIFSDIKKKVSGNCEVSQRSTMAIKGRNVFIKDLSLDGALIVDSIDDAEVKLGGLIKNNGWTMESVDYKDTSVPEEIRIRGFRFNKVEQLEKKLTQPGKFSVED”, the protein production is reported as “failed”. In the case of “MASYHARQRDPLLDQNMQAMLERRGRELLGIGLLIVAFLFMLILGTYSPEDPGWMVATDEPAQNALGRIGAAISSTLMIIAGKGSWGLPIVAGAWGARFLLHRGEERALGRIVFAVIAIALGSIYAATHVPGSEWTHSFGLGGLFGDTVLGALLEILPLPAAYGLKLLSLLVGGGLVAMGLFVCGFDLRELRQVTQFLLVGLVVTYNAALQLAGRGSVQAAQLMQEKIRAHREGRAAVDAAAVRGEARAEAMPRPRSRFREPEPEPEPAPRMGFLSRLRAQAPEDDPEPVIEEAAWGRPATLRADTTRPAALRSEGLRAEPRHVEPAPAPAQPRTGLLARMPQIIRRVTDPEAELVEHALSDAAANAEGPTEDRIKARINDVIRSRVRQSTGPLSPIAAAIARREPPMARRRSGPAPMVATRRAPMELPPEPPVVAGAGEKIRFASGMVASRMPGAATARLAVSALEADAAPAHAPRLMAEAYDAYEACETGEPILTAREQLAYADEDEAAAYDEAYAAEEEVESYAAEEAAWLPHEDFDDSTDWAPEPAAPAAPMMAPAMAPKPAAAPAARAPAVRPPEAQPKPRFEEQETHYELPPLSLLACPSTIVRNTLSVDALKENARMLESVLEDYGVKGEIVDAQAGPVVTLYELEPAPGLKASRVIGLADDIARSMSALSARVSTVPGRTVIGIELPNVSREKVILREILAARDFGDSSMRLPLALGKDIAGRPVVANLAKMPHLLIAGTTGSGKSVAINTMILSLLYKLTPEECRLIMIDPKMLELSVYDGIPHLLSPVVTDPKKAVVALKWVVGEMEERYRKMSKLGVRNIEGYNGRVSEALEKGEMFKRTIQTGFDEDTGEPVFETEDLQPVRLPFIVVVVDEMADLMMVAGKEIEACIQRLAQMARASGIHLIMATQRPSVDVITGTIKANFPTRISFQVTSKIDSRTILGEQGAEQLLGMGDMLYMAGGAKITRIHGPFVSDEEVEEIVNHLKSFGPPKYMSGVVEGPEDDRADDIDAVLGLGGNTDSEDALYDQAVAIVAKDRKCSTSYIQRKLGIGYNKAARLVEQMEEQGVVTAANHVGKREILLPEQ”, the protein production is reported as “failed”. In the case of “MATAASNHYSLLTSSASIVHAEPPGGMQQGAGGYREAQSLVQGDYGALQSNGHPLSHAHQWITALSHGGGGGGGGGGGGGGGGGGGGGDGSPWSTSPLGQPDIKPSVVVQQGGRGDELHGPGALQQQHQQQQQQQQQQQQQQQQQQQQQRPPHLVHHAANHHPGPGAWRSAAAAAHLPPSMGASNGGLLYSQPSFTVNGMLGAGGQSAGLHHHGLRDAHDEPHHADHHPHPHSHPHQQPPPPPPPQGPPGHPGAHHDPHSDEDTPTSDDLEQFAKQFKQRRIKLGFTQADVGLALGTLYGNVFSQTTICRFEALQLSFKNMCKLKPLLNKWLEEADSSSGSPTSIDKIAAQGRKRKKRTSIEVSVKGALESHFLKCPKPSAQEITSLADSLQLEKEVVRVWFCNRRQKEKRMTPPGGTLPGAEDVYGGSRDTPPHHGVQTPVQ”, the protein production is reported as “failed”. In the case of “MATANEHLVAWLRDAHAMEEQAITMLTSQSSRLENYPELKTRIDRHLQETKDQAAMLERCLERLDGGTSSIKDISGKIVAFGQGLSGLFVSDEVVKGTLASYTFEHMEIASYRILIAAAEQAGDQETKRVCESILQQEIAMAEWLAQNAGEITRKFLERDQRDVTAKH”, the protein production is reported as “not failed”. For “MATAPRPLREQYLHFQPISTRWHDNDIYGHVNNVTYYAFFDTAVNTYLIERGGLDIQGGEVIGLVVSSSCDYFAPVAFPQRIEMGLRVARLGNSSVQYELALFLEGQREACAAGRFVHVFVERRSSRPVAIPQELRDALAALQSSAQ”, the protein production was “not failed”. In the case of “MATATTTKTKTKATKKTRAKKATKKRATPKKNLVIVESPAKAKTIEKYLGRNYKVVASVGHIRDLKKSSMSIDFENNYEPQYINIRGKGPLIKELKKEAKKAKKVFLASDPDREGEAISWHLSHILGLEPEDKNRVVFNEITKDAVKNAFAEPRAIDMDLVDAQQARRVLDRIVGYSISPLLWKKVKKGLSAGRVQSVALKLIIDRENEIKAFKPEEYWTIDGAFKKGAKKFQASFYGLDGKKLKLNNNDDVKDVLSRIISDDFNVDKVEKKERRRNAPLPYTTSSLQQDAANKINFRTRKTMMVAQQLYEGINLGSGAQGLITYMRTDSTRISPVAQNQAAEFITERYGSKYSKHGSKVKNSSAAQDAHEAIRPSNVFQTPESIAKYLDKDQLKLYTLIWNRFVASQMTAAVFDTMKVTLSQNGVIFTANGSQIKFDGYMAVYNDSDKNKMLPEMAEGDTIKKVVTTPEQHFTQTPARYSEATLIKTLEENGVGRPSTYAPTLDVIQRRYYVKLVAKRFEPTELGEIVNSLIVEFFPDIVDVKFTAEMEAKLDKVEIGKEQWQKVIDEFFKPFQKELEKAEEGIEKIQIKDEPAGFDCDLCGHPMVIKLGRYGKFYACSNFPDCHNTKAITKEIGVTCPTCGQGQVIERKTKRNRVFYGCDRYPDCEFTSWDIPIGRNCPKSGDYLVEKKVRGGGKQVICSNEECDYKESVIK”, the protein production is reported as “failed”.
